Experiments:
[1] = system: AncSZ; test: phosphorylation enrichment, bacterial display (enrichment ratio); higher = better substrate or ligand; peptides without Tyr show the background
[2] = molecular target: EPHB1 (UniProt P54762); test: as above
[3] = molecular target: EPHB2 (UniProt P29323); test: as above
[4] = molecular target: FGFR1 (UniProt P11362); test: as above
[5] = molecular target: FGFR3 (UniProt P22607); test: as above
[6] = system: Fer (mouse); test: as above
[7] = molecular target: Fes (UniProt P07332); test: as above
[8] = molecular target: Fyn (UniProt P06241); test: as above
[9] = molecular target: Hck (UniProt P08631); test: as above
[10] = molecular target: Jak2 (UniProt O60674); test: as above
[11] = molecular target: MERTK (UniProt Q12866); test: as above
[12] = system: c-Abl (mouse); test: as above
[13] = system: c-Src; test: as above
[14] = molecular target: Grb2 SH2 (UniProt P62993); test: SH2 binding enrichment of the phosphorylated peptide, bacterial display (enrichment ratio); higher = better substrate or ligand; peptides without Tyr show the background
[15] = molecular target: SHP2-C SH2; test: as above
[16] = molecular target: c-Src SH2; test: as above
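Throughout, for SH2 binding enrichment of the phosphorylated peptide, bacterial display: peptide library displayed on the E. coli surface as eCPX fusions, selected cells deep-sequenced, score is each peptide's frequency after selection divided by its frequency in the input.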
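Throughout, for phosphorylation enrichment, bacterial display: 11-residue human phosphosite peptides and single-mutation variants displayed on the E. coli surface, counted by deep sequencing, each peptide's frequency after selection divided by its frequency in the unselected input library; frequency after pTyr selection over input frequency; kinase dosed for 20-30% of maximal phosphorylation in three min.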

Chain of Jak2 (O60674 whole entry, looked up): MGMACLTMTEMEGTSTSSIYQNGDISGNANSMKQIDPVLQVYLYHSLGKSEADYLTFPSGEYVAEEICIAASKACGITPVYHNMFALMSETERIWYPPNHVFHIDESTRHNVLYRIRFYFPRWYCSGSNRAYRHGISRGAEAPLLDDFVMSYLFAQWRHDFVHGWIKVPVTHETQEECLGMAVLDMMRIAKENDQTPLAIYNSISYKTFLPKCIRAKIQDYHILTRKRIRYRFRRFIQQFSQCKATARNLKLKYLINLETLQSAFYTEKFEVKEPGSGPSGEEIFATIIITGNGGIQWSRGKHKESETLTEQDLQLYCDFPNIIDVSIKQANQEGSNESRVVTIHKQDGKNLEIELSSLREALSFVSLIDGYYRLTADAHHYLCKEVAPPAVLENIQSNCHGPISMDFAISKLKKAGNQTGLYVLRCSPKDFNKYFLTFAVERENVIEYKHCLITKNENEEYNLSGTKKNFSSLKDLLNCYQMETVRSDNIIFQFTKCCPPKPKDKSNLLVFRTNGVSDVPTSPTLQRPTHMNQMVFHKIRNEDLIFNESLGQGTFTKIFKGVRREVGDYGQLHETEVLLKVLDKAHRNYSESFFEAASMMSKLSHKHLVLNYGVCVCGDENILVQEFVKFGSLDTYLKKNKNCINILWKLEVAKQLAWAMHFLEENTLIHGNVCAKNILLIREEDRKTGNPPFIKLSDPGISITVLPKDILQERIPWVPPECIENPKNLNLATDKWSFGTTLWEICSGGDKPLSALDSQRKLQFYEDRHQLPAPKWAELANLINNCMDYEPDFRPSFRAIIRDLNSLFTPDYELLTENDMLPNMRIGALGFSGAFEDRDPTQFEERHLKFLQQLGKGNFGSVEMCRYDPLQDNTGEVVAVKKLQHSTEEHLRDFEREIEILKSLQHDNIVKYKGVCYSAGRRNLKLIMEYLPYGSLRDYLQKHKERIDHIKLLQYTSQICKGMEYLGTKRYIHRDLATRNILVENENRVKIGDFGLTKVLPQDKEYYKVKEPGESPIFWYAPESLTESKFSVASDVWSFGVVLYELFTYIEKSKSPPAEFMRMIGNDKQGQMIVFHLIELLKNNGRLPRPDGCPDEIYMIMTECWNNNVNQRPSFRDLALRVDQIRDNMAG
Chain of FGFR1 (P11362 whole entry, looked up): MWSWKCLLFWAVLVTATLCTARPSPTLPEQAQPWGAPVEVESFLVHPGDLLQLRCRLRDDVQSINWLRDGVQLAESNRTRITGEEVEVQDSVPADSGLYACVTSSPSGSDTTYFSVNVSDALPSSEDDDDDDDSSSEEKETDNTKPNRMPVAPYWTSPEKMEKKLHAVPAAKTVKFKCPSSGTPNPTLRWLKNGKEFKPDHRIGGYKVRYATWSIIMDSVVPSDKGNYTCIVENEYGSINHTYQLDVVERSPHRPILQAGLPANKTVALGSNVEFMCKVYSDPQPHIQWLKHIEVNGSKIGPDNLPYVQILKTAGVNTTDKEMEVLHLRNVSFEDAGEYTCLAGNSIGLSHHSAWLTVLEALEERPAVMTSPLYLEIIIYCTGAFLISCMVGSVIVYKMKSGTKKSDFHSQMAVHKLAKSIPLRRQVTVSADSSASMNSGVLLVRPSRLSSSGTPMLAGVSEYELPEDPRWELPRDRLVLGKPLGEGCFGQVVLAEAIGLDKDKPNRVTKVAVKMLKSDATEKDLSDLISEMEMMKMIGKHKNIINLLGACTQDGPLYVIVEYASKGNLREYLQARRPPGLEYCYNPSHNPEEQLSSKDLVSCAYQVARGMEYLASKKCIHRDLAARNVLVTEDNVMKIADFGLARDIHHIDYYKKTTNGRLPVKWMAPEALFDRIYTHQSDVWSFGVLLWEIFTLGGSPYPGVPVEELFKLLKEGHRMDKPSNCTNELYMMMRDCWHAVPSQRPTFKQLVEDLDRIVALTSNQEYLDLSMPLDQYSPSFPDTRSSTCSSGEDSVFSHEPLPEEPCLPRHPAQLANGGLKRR
Chain of FGFR3 (P22607 whole entry, looked up): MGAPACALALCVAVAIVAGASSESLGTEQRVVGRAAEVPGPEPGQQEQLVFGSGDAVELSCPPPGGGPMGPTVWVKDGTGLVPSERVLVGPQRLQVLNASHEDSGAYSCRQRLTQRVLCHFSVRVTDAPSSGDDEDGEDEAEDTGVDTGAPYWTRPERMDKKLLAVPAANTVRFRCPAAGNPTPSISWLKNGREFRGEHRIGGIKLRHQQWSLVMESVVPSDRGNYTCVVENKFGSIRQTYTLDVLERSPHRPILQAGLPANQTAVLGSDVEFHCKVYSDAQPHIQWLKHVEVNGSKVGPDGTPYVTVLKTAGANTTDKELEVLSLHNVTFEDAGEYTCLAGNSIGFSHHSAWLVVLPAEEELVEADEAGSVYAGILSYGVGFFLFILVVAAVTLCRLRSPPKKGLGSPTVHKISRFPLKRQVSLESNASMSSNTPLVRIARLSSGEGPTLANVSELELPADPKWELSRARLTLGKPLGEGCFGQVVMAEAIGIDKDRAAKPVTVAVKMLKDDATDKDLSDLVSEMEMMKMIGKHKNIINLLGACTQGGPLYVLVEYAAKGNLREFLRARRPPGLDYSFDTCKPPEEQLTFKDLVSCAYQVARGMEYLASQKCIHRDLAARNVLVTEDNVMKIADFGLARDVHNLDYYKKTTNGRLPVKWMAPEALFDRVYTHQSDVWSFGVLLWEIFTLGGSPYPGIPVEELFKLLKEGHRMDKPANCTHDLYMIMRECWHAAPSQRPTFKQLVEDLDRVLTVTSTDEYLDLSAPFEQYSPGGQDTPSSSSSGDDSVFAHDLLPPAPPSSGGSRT
Chain of Grb2 SH2 (P62993 whole entry, looked up): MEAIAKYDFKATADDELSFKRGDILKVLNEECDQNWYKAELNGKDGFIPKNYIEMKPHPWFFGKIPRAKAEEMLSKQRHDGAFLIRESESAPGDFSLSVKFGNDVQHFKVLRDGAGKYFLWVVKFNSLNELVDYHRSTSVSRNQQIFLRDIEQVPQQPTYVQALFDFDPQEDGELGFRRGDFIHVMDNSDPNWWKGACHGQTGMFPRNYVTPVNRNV
Chain of EPHB2 (P29323 whole entry, looked up): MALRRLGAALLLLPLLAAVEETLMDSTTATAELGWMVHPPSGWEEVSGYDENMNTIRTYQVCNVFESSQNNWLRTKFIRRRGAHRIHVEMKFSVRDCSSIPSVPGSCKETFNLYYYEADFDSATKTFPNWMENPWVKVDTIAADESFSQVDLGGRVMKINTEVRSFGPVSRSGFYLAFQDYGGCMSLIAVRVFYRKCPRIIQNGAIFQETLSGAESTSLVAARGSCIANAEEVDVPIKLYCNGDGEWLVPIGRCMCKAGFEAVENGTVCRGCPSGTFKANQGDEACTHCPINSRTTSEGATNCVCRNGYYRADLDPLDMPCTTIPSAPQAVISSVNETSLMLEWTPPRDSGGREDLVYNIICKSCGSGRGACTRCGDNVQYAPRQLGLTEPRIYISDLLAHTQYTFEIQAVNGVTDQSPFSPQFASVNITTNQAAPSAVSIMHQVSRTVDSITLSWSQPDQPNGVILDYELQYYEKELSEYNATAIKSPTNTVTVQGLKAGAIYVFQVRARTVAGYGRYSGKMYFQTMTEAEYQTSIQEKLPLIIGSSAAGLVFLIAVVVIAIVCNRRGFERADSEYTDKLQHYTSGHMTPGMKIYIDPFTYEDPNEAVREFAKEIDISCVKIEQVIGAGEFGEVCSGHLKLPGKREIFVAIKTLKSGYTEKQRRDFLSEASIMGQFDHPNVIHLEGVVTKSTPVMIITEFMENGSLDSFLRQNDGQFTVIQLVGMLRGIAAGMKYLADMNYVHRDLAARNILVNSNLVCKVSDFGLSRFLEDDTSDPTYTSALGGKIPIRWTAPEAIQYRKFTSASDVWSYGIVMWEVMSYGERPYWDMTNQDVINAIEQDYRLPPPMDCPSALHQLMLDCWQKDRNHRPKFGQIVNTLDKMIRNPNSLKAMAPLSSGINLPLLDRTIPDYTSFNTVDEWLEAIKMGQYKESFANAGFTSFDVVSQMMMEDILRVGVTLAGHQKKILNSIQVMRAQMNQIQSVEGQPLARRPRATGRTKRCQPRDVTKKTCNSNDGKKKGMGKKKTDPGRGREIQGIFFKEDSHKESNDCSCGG
Chain of Fes (P07332 whole entry, looked up): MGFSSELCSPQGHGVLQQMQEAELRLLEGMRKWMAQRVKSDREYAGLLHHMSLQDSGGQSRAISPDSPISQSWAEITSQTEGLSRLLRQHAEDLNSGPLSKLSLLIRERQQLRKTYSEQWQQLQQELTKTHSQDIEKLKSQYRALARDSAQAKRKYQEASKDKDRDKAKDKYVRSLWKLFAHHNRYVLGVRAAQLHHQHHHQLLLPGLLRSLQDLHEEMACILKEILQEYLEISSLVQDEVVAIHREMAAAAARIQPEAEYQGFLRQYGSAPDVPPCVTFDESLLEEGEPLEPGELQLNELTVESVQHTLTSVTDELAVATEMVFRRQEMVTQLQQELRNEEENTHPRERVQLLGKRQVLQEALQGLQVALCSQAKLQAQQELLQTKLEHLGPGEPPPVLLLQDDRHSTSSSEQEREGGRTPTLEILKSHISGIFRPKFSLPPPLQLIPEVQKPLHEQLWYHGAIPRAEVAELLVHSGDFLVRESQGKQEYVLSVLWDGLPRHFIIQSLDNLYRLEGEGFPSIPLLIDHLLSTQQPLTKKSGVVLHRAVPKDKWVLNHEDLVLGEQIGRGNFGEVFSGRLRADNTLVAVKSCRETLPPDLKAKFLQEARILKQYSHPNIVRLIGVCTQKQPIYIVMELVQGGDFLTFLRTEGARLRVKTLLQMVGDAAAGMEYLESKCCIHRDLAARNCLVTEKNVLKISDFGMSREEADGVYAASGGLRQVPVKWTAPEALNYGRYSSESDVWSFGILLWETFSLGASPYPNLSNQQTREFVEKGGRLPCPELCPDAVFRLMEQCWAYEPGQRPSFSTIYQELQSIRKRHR

Sequence	phosphorylation enrichment [1]	phosphorylation enrichment [2]	phosphorylation enrichment [3]	phosphorylation enrichment [4]	phosphorylation enrichment [5]	phosphorylation enrichment [6]	phosphorylation enrichment [7]	phosphorylation enrichment [8]	phosphorylation enrichment [9]	phosphorylation enrichment [10]	phosphorylation enrichment [11]	phosphorylation enrichment [12]	phosphorylation enrichment [13]	SH2 binding enrichment [14]	SH2 binding enrichment [15]	SH2 binding enrichment [16]
GRSTCYWPRPR [GAGE12J_Y10_Y9C]	0.762	0.502	0.512	0.538	0.531	0.602	0.686	0.543	0.557	0.885	0.567	0.697	0.649	1.03	0.831	0.507
GSCQEYTGAPF [NAXD_Y85_G81S_YF]	1.16	0.628	0.496	0.536	0.798	0.466	1.04	0.422	0.509	0.98	0.424	0.638	0.564	0.946	0.822	0.596
GSIQQYIFKQE [PRG4_Y1271_YF]	0.836	0.476	0.573	0.531	0.574	0.451	0.738	0.429	0.537	0.508	0.452	0.499	0.545	0.754	0.469	0.362
GSIQQYTYKQE [PRG4_Y1271_I1272T]	0.773	0.45	0.494	0.453	0.559	0.437	0.94	0.37	0.483	0.806	0.374	0.731	0.444	0.604	0.599	0.384
GSLEDYVRETN [GIMAP6_Y176]	1	0.438	0.573	0.501	0.661	0.398	0.869	0.468	0.54	0.724	0.442	0.619	0.424	0.785	0.656	0.541
GSQERYFELVE [TSC2_Y407]	1.13	0.577	0.571	0.947	0.826	0.541	1.27	0.462	0.466	1.17	0.489	0.813	0.509	0.689	0.499	2.07
GSRGKYSSGFH [ATM_Y332_R337H]	0.464	0.417	0.3	0.452	0.605	0.409	0.535	0.421	0.391	0.439	0.452	0.579	0.45	1.04	0.649	0.905
GSTLSYFGLAT [P2RX7_Y343_A348T]	1.09	0.635	0.5	1.36	1.36	0.545	0.912	0.639	0.687	5.4	0.637	0.998	0.595	0.893	0.751	0.595
GTQGSYLLSRK [UGT3A1_Y123_C121G]	0.523	0.48	0.411	0.366	0.355	0.392	0.56	0.4	0.49	0.615	0.433	0.606	0.555	0.584	0.821	0.392
GTTIHYNYMCN [TP53_Y234_C229G]	1.12	0.834	0.704	0.619	0.973	0.656	1.37	0.614	0.673	1.22	0.585	0.814	0.529	0.716	0.73	1.56
GTVRDYPDFNP [ANXA3_Y15_S19N]	0.785	0.519	0.431	0.403	0.526	0.407	0.796	0.404	0.418	0.9	0.304	0.663	0.357	0.874	0.609	0.536
GVIRHYVVCST [BTK_Y334]	1.13	0.68	0.712	0.555	0.813	0.566	1.25	0.535	0.536	1.12	0.447	0.87	0.444	0.819	0.529	0.495
GVPLGYPIKAS [ELN_Y206_P211S]	0.438	0.327	0.333	0.407	0.412	0.376	0.576	0.368	0.404	0.477	0.366	0.714	0.381	0.783	0.581	0.423
GYAGKYIAMVM [CYP19A1_Y441_C437Y]	0.752	0.525	0.483	0.521	0.584	0.545	0.904	0.489	0.526	0.644	0.479	0.862	0.381	0.883	0.563	0.732
HDRNTYEKYLE [TF_Y666_G671E]	1.07	0.505	0.595	0.584	0.748	0.715	1.21	0.856	0.736	1.24	0.506	1.08	0.995	0.681	1.14	1.62
HESEIYCKVCF [CSRP3_Y57_YF]	1.52	0.854	1.42	0.821	0.89	2.49	1.11	5.35	7.63	1.21	3.7	1.17	6.41	1.44	1.35	1.54

From the supplement of paper PMC10065799, “High-throughput profiling of sequence recognition by tyrosine kinases and SH2 domains using bacterial peptide display” (eLife, 2023)
